# Patent US20160143985
# T1: Ac-YVAD-AMC (model substrate, from Enzo, Inc.)
# T1 chain: YVAD
# Tests used:
# [1] = target: T1, Ac-YVAD-AMC (model substrate, from …)
# [2] = target: alpha-synuclein, wild-type full-length human (140 amino acids)
protein,measurement,setting,value
"caspase-1 (ICE; interleukin-1-beta converting enzyme), purified, activated (protein) NPAMPTSSGSEGNVKLCSLEEAQRIWKQKSAEIYPIMDKSSRTRLALIICNEEFDSIPRRTGAEVDITGMTMLLQNLGYSVDVKKNLTASDMTTELEAFAHRPEHKTSDSTFLVFMSHGIREGICGKKHSEQVPDILQLNAIFNMLNTKNCPSLKDKPKVIIIQACRGDSPGVVWFKDSVGVSGNLSLPTTEEFEDDAIKKAHIEKDFIAFCSSTPDNVSWRHPTMGSVFIGRLIEHMQEYACSCDVEEIFRKVRFSFEQPDGRAQMPTTERVTLTRCFYLFPGH",activity against a model substrate,[1],110 µM/min/mg
same,Western blot of ICE digested alpha-synuclein with increasing amounts of ICE (2 to 12 µg),[2],Appearance of a smaller fragment of synuclein below 17 kD with intensity increasing with amount of ICE
same,cleavage of alpha-synuclein in vitro (SDS-PAGE and western blot with anti-synuclein antibody),[2],"Purified, activated caspase-1 does indeed cleave alpha-synuclein"
